Measurements: the RNAGym collection of RNA variant scans (doi:10.7554/elife.90254)

B1: LINE1-full (parent)
chain: UACGUAGGUGGUUUUCCCCUGAUAGUGCUAAGGGGGCCUGGAAGUUUGGACUGGGCAGAGCUCAACACAGCGUGGCAAAGUGGCUGUGGCUAGACUGCCUCUCUGGAUUCCUCGUCACUCAGCAGGGCAUCUCUGAGAGAAAUGCC

Variants of: B1
Experiment: self-cleavage, relative activity (ratio to wild type); higher = more cleavage; in vitro, sequencing; the parent is a self-cleaving ribozyme

Variant	self-cleavage
A69G C131A	1.01
G72A A141U	1.42
G72A A141G	1.54
G72U A77G	2.19
U73C A94G	0.37
U73A U87C	0.06
U73C U102C	1.11
G72U A107C	2.15
C71A A117G	0.15
U73A C98U	0.32
A69G U130C	0.67
A69G U130A	0.39
U73A G126A	0.57
G72A U132C	1.13
G72A A92U	0.69
A69U U100C	0.08
G70A C128A	0.04
U73C A79G	1.79
A69U G114U	0.06
G70A U100C	0.29
G74A A77G	1.35
G70A U85G	0.01
C71U A77U	0.7
U73A A117C	1.99

Variant	self-cleavage
U73A A117G	1.4
G72C U73C	1.13
G72U U132C	1.11
U73A G139A	1.47
A69U A141G	0.07
C71U C101A	1.14
U73A C123U	1.3
U73G U115A	1.12
G70U A140G	0.04
U73A A124C	2.02
U73A A124G	1.03
A69G A140G	0.36
A69G A140U	0.47
C71G A136G	0.28
G74A	0.95
U73C C116U	1.39
C71U C146U	0.66
G72A A129G	1.67
G70A A136G	0.11
U73C G106A	1.7
A69G U132C	0.71
C71A U134A	0.18
A69G A141G	0.44
U73C G144A	1.77

Variant	self-cleavage
C71A A124G	0.13
U73A U119C	1.86
U73A U119A	1.59
U73A U130C	1.82
U73A U130A	1.83
U73A C110A	0.94
C71A U73C	0.31
A69U A138U	0.09
U73G U119C	1.57
G72A A124U	1.22
G72A A124G	0.52
A69G U81G	0
U73C C133U	1.97
G72A A121G	1.02
G72A A121U	1.52
U73A G86A	0.04
C71U A117G	0.64
G72A U100A	0.18
G72A U100C	0.32
U73C G97A	0.41
A69G G74A	0.49
C71U U115A	0.85
C71U A138G	1.21
A69G A138G	0.56

Variant	self-cleavage
A69U A136G	0.06
C71U U81A	0.88
C71U U81C	0.74
A69G G82A	0.68
G72A G105U	1.29
A69G A136U	0.45
A69U A121G	0.05
A69U A121U	0.05
G72C A77G	2.28
G72A G83A	1.53
A69U U130A	0.09
A69U U130C	0.05
C71A A78G	0.19
C71A C133U	0.08
U73C C101U	1.01
G70C A77U	0.09
U73A A79G	1.2
U73A A79C	2.16
U73G A92G	0.36
U73A A121U	1.28
U73A A121G	1.93
A69G U112C	0.52
A69G U112G	1.15
A69G U112A	0.74

Variant	self-cleavage
U73G A141G	1.81
G70U U130C	0.08
U73A U102C	0.97
U73C A124U	1.5
U73C A124G	0.64
G72C U112C	0.98
C71A G93U	0.03
A69G G114A	0.99
U73A A77U	0.69
A69U C101U	0.03
A69U U134C	0.09
U73C C131A	1.55
U73C C131G	1.73
U73C C131U	1.73
A69G C103A	0.43
U73A G88A	0.07
U73G U143C	2.02
G70A U115G	0.11
A69U G89A	0.04
A69U G89U	0.02
U73C G127A	1.7
A69G C118A	0.51
A69G C118U	0.2
U73C U134C	1.87

Variant	self-cleavage
U73C U134A	1.54
C71U U102C	0.18
A69G G139U	0.36
U73G U96C	0
U73C G86A	0.14
A69U U87C	0.06
A69U U87A	0.04
U73A U85A	0.05
U73A U85C	0.1
U73C C113A	1.4
C71G A141G	0.4
U73C A129G	1.98
U73C A129C	1.36
C71A U96A	0.09
G72U C116A	1.23
C71U U130A	1
C71A A77G	0.18
U73G A77U	1.14
U73A U91A	0.72
A69G U109A	0.43
G72C U134A	0.97
G72U C113U	1.15
U73G U112G	0
G72U C145G	0.94

Variant	self-cleavage
U73C U115C	1.63
G70A A124C	0.21
A69G C123G	0.84
U73C C145U	1.53
U73A U115C	1.9
G72U U130A	1.07
U73G A140G	1.21
U73A U132G	2.06
A69U A78G	0.04
U73C A141U	1.53
U73C A141G	1.62
U73A G80A	2.16
G72A A142G	1.27
C71A A140G	0.23
A69G G86A	0.03
C71U G144A	1.27
G70U C90G	0.02
A69G G88C	0.06
C71U U73C	0.1
C71U U73A	0.31
A69U G93A	0.03
A69U A79U	0.08
A69U A79C	0.12
